Legend:
[1] = molecular target: T1, GPIa/IIa on a stable K562 cell line (UniProt P17301 30-1181; P05556 21-798, limits assumed); test: flow cytometry on K562 cells expressing GPIa/IIa
T1 construct: whole, on cells; also called K562 cell line expressing GPIa/IIa

[2] = molecular target: T2, GPIIb/IIIa on intact human platelets (human, UniProt P08514 32-1039; P05106 27-788); test: immunoprecipitation from biotinylated platelets; agrees with ELISA and Glanzmann platelet flow cytometry;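 further: precipitated biotin-labelled platelet membrane proteins visualized with biotinylated horseradish peroxidase-avidin complexes, scored for polypeptides behaving like GPIIb/IIIa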
T2 construct: whole, on cells; also called platelet GPIIb/IIIa; αIIbβ3
Excerpt: Precipitated, biotinylated platelet membrane proteins were detected with biotinylated horseradish peroxidase-avidin complexes (ABC Staining Kit, Pierce).

| Binder | binding result [1] | binding result [2] |
| --- | --- | --- |
| H46L16 (Fab, V domains shown, Soluble Fab, ITP patient A, clone A) VH: QVQLVESGGGVVQPGRSLRLSCAASGFTFSNFNMHWVRQAPGKGLEWVALISYDGSNKNYADSVKGRFTISRDNSKNTLFLQMNSLRAEDTAVYYCMVVGAFDYWGQGTLVTVSS VL: DIQMTQSPSSLSASVGDRVTITCRASQGISSYLAWYQQKPGKVPKLLIYAASTLQSGVPSRFSGSGSGTDFTLTISSLQPEDVATYYCQKYNSAPLTFGGGTKVEIK | no binding | no binding |
| H83L34 (Fab, V domains shown, Soluble Fab) VH: QVQLQESGPGLVKPSETLSLTCTVSGGSISSYYWSWIRQPPGKGLEYIGYIYYSGSTDYNPSLKSRVTISVDTSENQFSLKLSSVTAADTAVYYCARSPPVIRPAMDVWGQGTTVTVSS VL: not shown | no binding | no binding |
| H48L24 (Fab, V domains shown, Soluble Fab, clone A) VH: QVQLVESGGGVVQPGRSLRLSCAASGFTISNYHIHWVRQAPGKGLEWVAFISYDGSNKYYADSVKGRFTISRDNSKNTLFLQMNSLTTEDTAVYYCAIVGPFDYRGQGTLVTVSS VL: DIQLTQSPTFLSASVGDRVTITCRASQGISRYLAWYQQKPGKAPKLLIYAASTLQSGVPSRFSGSGSGTDFTLTFSSLQPEDFATYYCQQLNSYPFTFGGGTTVEIK | no binding | no binding |
| H40L36 (Fab, V domains shown, Soluble Fab) VH: QVQLVESGGGVVQPGRSLRLSCAASTFTFSNYAMHWVRQAPGKGLEWVAVISYDGSNKYYADSVKGRFTISRDNSKNTLYLQMNSLRPEDTAVYYCARGGVAAFDYWGQGTLVTVSS VL: not shown | no binding | no binding |
| H40L53 (Fab, V domains shown, Soluble Fab) VH: QVQLVESGGGVVQPGRSLRLSCAASTFTFSNYAMHWVRQAPGKGLEWVAVISYDGSNKYYADSVKGRFTISRDNSKNTLYLQMNSLRPEDTAVYYCARGGVAAFDYWGQGTLVTVSS VL: not shown | no binding | no binding |
| H41L51 (Fab, V domains shown, Soluble Fab) VH: QVQLVESGGGVVQPGRSLRLSCAASGSTFSYYAMHWVRQAPGKGLEWVAVISYDGSNKYYADSVKGRFTISRDNSKNTLYLQMNSLRPEDTAVYYCARGGVAAFDYWGQGTLVTVSS VL: not shown | no binding | no binding |
| H37L47 (Fab, V domains shown, Soluble Fab) VH: QVQLVESGGGVVQPGRSLRLSCAASGFTFSNYAMHWVRQAPGKGLEWVAVISYDGSNKYYADSVKGRFTISRDNSKNTLYLQMNSLRPEDTAVYYCARGGVAAFDYWGQGTLVTVSS VL: not shown | no binding | no binding |
| H37L41 (Fab, V domains shown, Soluble Fab) VH: QVQLVESGGGVVQPGRSLRLSCAASGFTFSNYAMHWVRQAPGKGLEWVAVISYDGSNKYYADSVKGRFTISRDNSKNTLYLQMNSLRPEDTAVYYCARGGVAAFDYWGQGTLVTVSS VL: not shown | no binding | no binding |
| H38L54 (Fab, V domains shown, Soluble Fab) VH: QVQLVESGGGVVQPGRSLRLSCAASGFTFSNYAMHWVRQAPGKGLEWVAVISYDGSNKYYADSVKGRFTISRDNSKNTLYLQMNSLRPEDTAVYYCARGGVGAFDYWGQGTLVTVSS VL: not shown | no binding | no binding |
| H39L43 (Fab, V domains shown, Soluble Fab) VH: QVQLVESGGGVVQPGRSLRLSCAASGFTFSNYAMHWVRQAPGKGLEWVAVISYDGSNKYYADSVKGRFTISRDNSKNTLYLQMNSLRPEDTAVYYCARGGVAAFDYWGQGTLVTV VL: not shown | no binding | no binding |

Now from value to binder:

| binding result [1] | binding result [2] | Binder |
| --- | --- | --- |
| no binding | no binding | H37L44 (Fab, V domains shown, Soluble Fab) VH: QVQLVESGGGVVQPGRSLRLSCAASGFTFSNYAMHWVRQAPGKGLEWVAVISYDGSNKYYADSVKGRFTISRDNSKNTLYLQMNSLRPEDTAVYYCARGGVAAFDYWGQGTLVTVSS VL: DIVMTQSPVSLAVTPGEPASISCRSSQSLLHSNGYNYLDWYLQKPGQSPQLLIYLGSTRASGVPDRFSGSGSGTDFTLKINRVEAEDVGVYYCMQALQSPFTFGGGTKVEIK |
| no binding | no binding | H37L48 (Fab, V domains shown, Soluble Fab) VH: QVQLVESGGGVVQPGRSLRLSCAASGFTFSNYAMHWVRQAPGKGLEWVAVISYDGSNKYYADSVKGRFTISRDNSKNTLYLQMNSLRPEDTAVYYCARGGVAAFDYWGQGTLVTVSS VL: not shown |
| no binding | no binding | H42L38 (Fab, V domains shown, Soluble Fab) VH: QVQLVESGGAMVQPGRSLRLSCAASGFPFSNYAMHWVRQAPGKGLEWVAVISYDGSNKYYADSVKGRFTISRDNSKNTLYLQMNSLRPEDTAVYYCARGGVAAFDYWGQGTLVTVSS VL: not shown |
| no binding | no binding | H38L39 (Fab, V domains shown, Soluble Fab) VH: QVQLVESGGGVVQPGRSLRLSCAASGFTFSNYAMHWVRQAPGKGLEWVAVISYDGSNKYYADSVKGRFTISRDNSKNTLYLQMNSLRPEDTAVYYCARGGVGAFDYWGQGTLVTVSS VL: DIVMTQSPPSLPVTPGEPASISCRSSQSLLHTNGYNYLDWYLQKPGQSPQLLIYLGSNRASGVPDRFSGSGSGTDFTLTISRVEAEDVGVFYCMQALEPPYTFGQGTKLEIK |
| no binding | no binding | H40L42 (Fab, V domains shown, Soluble Fab) VH: QVQLVESGGGVVQPGRSLRLSCAASTFTFSNYAMHWVRQAPGKGLEWVAVISYDGSNKYYADSVKGRFTISRDNSKNTLYLQMNSLRPEDTAVYYCARGGVAAFDYWGQGTLVTVSS VL: not shown |
| no binding | no binding | H37L45 (Fab, V domains shown, Soluble Fab) VH: QVQLVESGGGVVQPGRSLRLSCAASGFTFSNYAMHWVRQAPGKGLEWVAVISYDGSNKYYADSVKGRFTISRDNSKNTLYLQMNSLRPEDTAVYYCARGGVAAFDYWGQGTLVTVSS VL: DIVMTQSPVSLAVTPGEPASISCRSSQSLLHSNGYNYLDWYLQKPGQSPQLLIYLGSTRASGVPDRFSGSGSGTDFTLKINRVEAEDVGVYYCMQALQSPFTFGGGTKVQIK |
| no binding | no binding | H36L35 (Fab, V domains shown, Soluble Fab) VH: QVQLVESGGGVVQPGRSLRLSCAASGFTFSSYAMHWVRQAPGKGLEWVAVISYDGSNKYYADSVKGRFTISRDNSKNTLYLQMNSLRPEDTAVYYCARGGVAAFDYWGQGTLVTVSS VL: not shown |
| no binding | no binding | H40L52 (Fab, V domains shown, Soluble Fab) VH: QVQLVESGGGVVQPGRSLRLSCAASTFTFSNYAMHWVRQAPGKGLEWVAVISYDGSNKYYADSVKGRFTISRDNSKNTLYLQMNSLRPEDTAVYYCARGGVAAFDYWGQGTLVTVSS VL: not shown |
| no binding | no binding | H39L37 (Fab, V domains shown, Soluble Fab) VH: QVQLVESGGGVVQPGRSLRLSCAASGFTFSNYAMHWVRQAPGKGLEWVAVISYDGSNKYYADSVKGRFTISRDNSKNTLYLQMNSLRPEDTAVYYCARGGVAAFDYWGQGTLVTV VL: not shown |
